This note sets out measurements from article PMC6856015.

The assay has as its target Calmodulin (recombinant CaM) (UniProt P0DP23). Briefly: cross-linking; photoaffinity labeling (PAL): 5 μM CaM and 5 μM Bpa-Mover(203-221), 10 mM HEPES pH 7.2, 150 mM KCl, 5 mM DTT, 2 h RT in the dark, with 100 μM Ca2+, UV irradiation; photoadducts read by SDS-PAGE and MALDI-TOF-MS.

Turning to “Bpa-Mover(203-221), photoreactive variant of the rat Mover peptide 203-221 (from UniProt A8WCF8 203-221)”, the stoichiometry N (peptide per CaM) was 1.
